Numbering of substitutions follows the chain as printed. Names and notes keep the numbering of the source.
T1: recombinant human IL-31 (as used in the NHK STAT3 phosphorylation assay of Example 5) (human, UniProt Q6EBC2 24-164, limits assumed)
T1 sequence: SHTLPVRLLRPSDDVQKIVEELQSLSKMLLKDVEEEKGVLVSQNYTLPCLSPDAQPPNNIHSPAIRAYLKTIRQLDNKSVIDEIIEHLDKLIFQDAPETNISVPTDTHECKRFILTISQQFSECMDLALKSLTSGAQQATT

T2: recombinant human IL-31 (hIL-31, BHK produced, A1277F, zcytor17lig CEE) (human, UniProt Q6EBC2 24-164)
T2 construct: also called recombinant hIL-31
T2 sequence: T1 sequence

B1: humanized 292.12.3.1 construct clone 8 (12VH5-gly + fback) (antibody, human IgG4, V domains shown)
VH: EVQLVQSGAEVKKPGESLKISCKASGYTLTRYWMQWVRQMPGKGLEWMGAIYPGDGDTRYSPSFQGQVTLTADKSISTAYLQWSSLKASDTAMYYCAFPDGYYAAPYGMDYWGQGTTVTVSS
VL: DIQMTQSPSSLSASVGDRVTITCRASGNIHNYLAWYQQKPGKVPKLLIYNAKTLADGVPSRFSGSRSETQYSLTISSLQPEDVATYYCQHFWSTPWTFGQGTKVEIKR
notes: also called 08
B2: humanized 292.12.3.1 construct clone 26 (12VH1-gly + HC(fback) + LC(F71Y)) (antibody, human IgG4, V domains shown)
VH: QVQLVQSGAEVKKPGASVKVSCKASGYTLTRYWMQWVRQAPGQGLEWMGAIYPGDGDTRYSQKFQGRVTLTADKSISTAYMELSSLRSEDTAVYYCAFPDGYYAAPYGMDYWGQGTLVTVSS
VL: B1 VL with R66G, E68G, Q70D, S72T
B3: humanized 292.12.3.1 construct clone 14 (12VH1-gly + HC(M69L, R71A, T73K, V78A, R94F) + LC(fback)) (antibody, human IgG4, V domains shown)
VH: B2 VH with L29F
VL: B1 VL
B4: humanized 292.12.3.1 construct clone 7 (12VH1-gly + fback) (antibody, human IgG4, V domains shown)
VH: B2 VH
VL: B1 VL
notes: also called 07
B5: humanized 292.12.3.1 construct clone 17 (12VH1-gly + HC(fback) + LC(D70Q, F71Y, T72S)) (antibody, human IgG4, V domains shown)
VH: B2 VH
VL: B1 VL with R66G, E68G
B6: humanized 292.12.3.1 construct clone 13 (12VH1-gly + HC(F29L, M69L, R71A, T73K, V78A) + LC(fback)) (antibody, human IgG4, V domains shown)
VH: B2 VH with F98R
VL: B1 VL
B7: humanized 292.12.3.1 construct clone 10 (12VH1-gly + LC(fback)) (antibody, human IgG4, V domains shown)
VH: B2 VH with L29F, L70M, A72R, K74T, A79V, F98R
VL: B1 VL
B8: humanized 292.12.3.1 construct clone 16 (12VH1-gly + HC(fback) + LC(G66R, G68E, D70Q, T72S)) (antibody, human IgG4, V domains shown)
VH: B2 VH
VL: B1 VL with Y71F
B9: humanized 292.12.3.1 construct clone 25 (12VH1-gly + HC(F29L, R94F) + LC(F71Y)) (antibody, human IgG4, V domains shown)
VH: B2 VH with L70M, A72R, K74T, A79V
VL: B1 VL with R66G, E68G, Q70D, S72T
B10: humanized 292.12.3.1 construct clone 9 (12VH1-gly + HC(fback)) (antibody, human IgG4, V domains shown)
VH: B2 VH
VL: B1 VL with R66G, E68G, Q70D, Y71F, S72T
notes: also called 09
B11: humanized 292.12.3.1 construct clone 18 (12VH1-gly + HC(fback) + LC(G66R, G68E, F71Y)) (antibody, human IgG4, V domains shown)
VH: B2 VH
VL: B1 VL with Q70D, S72T
B12: humanized 292.12.3.1 construct clone 24 (12VH5-gly + HC(fback) + LC(G66R, G68E, F71Y)) (antibody, human IgG4, V domains shown)
VH: B1 VH
VL: B1 VL with Q70D, S72T
B13: humanized 292.12.3.1 construct clone 11 (12VH5-gly + HC(fback)) (antibody, human IgG4, V domains shown)
VH: B1 VH
VL: B1 VL with R66G, E68G, Q70D, Y71F, S72T
B14: humanized 292.12.3.1 construct clone 21 (12VH5-gly + HC(G24A, S28T, F29L, R94F) + LC(fback)) (antibody, human IgG4, V domains shown)
VH: B1 VH with L70I, T71S
VL: B1 VL
B15: humanized 292.12.3.1 construct clone 23 (12VH5-gly + HC(fback) + LC(D70Q, F71Y, T72S)) (antibody, human IgG4, V domains shown)
VH: B1 VH
VL: B1 VL with R66G, E68G
B16: humanized 292.12.3.1 construct clone 22 (12VH5-gly + HC(fback) + LC(G66R, G68E, D70Q, T72S)) (antibody, human IgG4, V domains shown)
VH: B1 VH
VL: B1 VL with Y71F

target: T1, recombinant human IL-31 (as used in the …); test: cell-based or functional assay

Row | IC50, IL-31-induced STAT3 phosphorylation in NHK, Exp 4 [nM] | IC50, IL-31-induced STAT3 phosphorylation in NHK, Exp 10 [nM] | IC50, IL-31-induced STAT3 phosphorylation in NHK, Exp 8 [nM] | IC50, IL-31-induced STAT3 phosphorylation in NHK, Exp 9 [nM] | IC50, IL-31-induced STAT3 phosphorylation in NHK, Exp 6 [nM] | IC50, IL-31-induced STAT3 phosphorylation in NHK, Exp 7 [nM] | Binder
1 | 6.74 | 3.44 |  |  |  |  | B1
2 |  |  | 7.84 | 6.93 |  |  | B2
3 |  |  |  |  | 71.9 | 242 | B3
4 | 7.8 | 8.82 | 5.44 | 7.58 | 3.99 | 7.74 | B4
5 |  |  |  |  | 6.65 | 5.29 | B5
6 |  |  |  |  | 46.5 | 211 | B6
7 |  |  |  |  | 68.8 | 224 | B7
8 |  |  |  |  | 3.84 | 6.22 | B8
9 |  |  | 5.85 | 7.28 |  |  | B9
10 |  |  | 6.59 | 7.1 | 3.25 | 7.37 | B10
11 |  |  |  |  | 2.6 | 2.68 | B11

target: recombinant human IL-31 (C108S), produced in E. coli by ZymoGenetics, MW 18 kDa (human), Q6EBC2; test: cell-based or functional assay

Row | Average Fold loss in potency relative to 292.12.3.1, BAF-3(hIL-31R) proliferation assay [fold] | Average Potency (IC50), inhibition of hIL-31-induced proliferation of BAF-3(hIL-31R) cells [nM] | Binder
12 | 2.5 | 4.1 | B1
13 | 5.8 | 9.3 | B2
14 | 4 | 6 | B12
15 | 3.3 | 4.5 | B4
16 | 11.6 | 22.8 | B13
17 | 5.2 | 5.9 | B5
18 | 99.1 | 109 | B6
19 | 3.5 | 4.8 | B14
20 | 7.6 | 8.6 | B15
21 | 9.8 | 10.6 | B8
22 | 16.5 | 26.3 | B9
23 | 13.2 | 14 | B16
24 | 15.1 | 28.5 | B10
25 | 5.9 | 8.1 | B11

target: T2, recombinant human IL-31 (hIL-31, BHK …); test: SPR (Biacore), against parent 292.12.3.1
Description: (§1) The purified monoclonal antibodies were immobilized in individual flow cells on a CM5 type sensor chip. Immobilizations were performed using a standard amine coupling procedure, aiming for an immobilization level of 500 Resonance Units (RU). The antibodies were diluted to 1-5 ug/ml in 10 mM NaAc pH 4.5.
(§2) HPS-EP pH 7.4 (10 mM HEPES, 150 mM NaCl, 3 mM EDTA and 0.005% Polysorbat P20) was used as running buffer, and diluents for the recombinant hIL-31 (hIL-31, BHK produced, A1277F, zcytor17lig CEE). The hIL-31 was tested in a 3-fold dilution series from 333.3 nM to 1.4 nM. Association (injection) was 4 min., followed by a 20 min. dissociation (wash) period. Flow rate was 50 ul/min. Experiments were performed at 25OC. Regeneration of the surface was accomplished by injection of 30 sec. pulse of 10 mM Glycin-HCl pH 1.8 or 1M formic acid, at a 30 ul/min flow rate. Detection in all flow cells simultaneously. Flow cell #1 contained no immobilized antibody, and was used for subtraction of background and bulk.
(§3) The kinetic parameters were calculated by global fitting of the data using a 1:1 langmuir binding model. Data was inspected for mass-transport limitations prior to calculation of the kinetic parameters. In some experiments the Rmax was fitted locally, and the RI constant at 0.

Row | Relative potency loss (KD) | Relative potency loss (kd) | Binder
26 | ~0.4 x to parent |  | B2
27 | ~5.5 x to parent | ~12 x to parent | B3
28 | ~0.4 x to parent |  | B5
29 | ~10 x to parent | ~50 x to parent | B6
30 | ~85 x to parent | ~245 x to parent | B7
31 | ~0.6 x to parent | ~1.5 x to parent | B15
32 | ~0.5 x to parent |  | B8
33 | ~0.5 x to parent |  | B9
34 |  | ~2 x to parent | B16
35 |  | ~1.5 x to parent | B10
36 | ~0.5 x to parent |  | B11

target: T2, recombinant human IL-31 (hIL-31, BHK …); test: SPR (Biacore), mAb amine-coupled to CM5 chip, hIL-31 injected
Description: as §1, §2, §3

Row | Kd [nM] | koff [s⁻¹] | kon [M⁻¹ s⁻¹] | Binder
37 | 1.9 | 5.4e-05 | 28000 | B1
38 | 0.68 | 7e-05 | 100000 | B2
39 | 12.5 | 0.00073 | 59000 | B3
40 | 1.9 | 5.7e-05 | 33000 | B4
41 | 1.46 | 7.6e-05 | 52000 | B13
42 | 0.9 | 6.5e-05 | 70000 | B5
43 | 24 | 0.003 | 120000 | B6
44 | 1.4 | 9.7e-05 | 69000 | B14
45 | 186 | 0.015 | 88000 | B7
46 | 1.4 | 9e-05 | 65000 | B15
47 | 1.2 | 7.5e-05 | 61000 | B8
48 | 0.85 | 7.2e-05 | 85000 | B9
49 | 1.7 | 0.00011 | 67000 | B16
50 | 2.1 | 9e-05 | 43000 | B10
51 | 1.13 | 6.2e-05 | 55000 | B11
